The target of data set [1] is T1, SERF2 (human, UniProt P84101 1-59).
T1 sequence: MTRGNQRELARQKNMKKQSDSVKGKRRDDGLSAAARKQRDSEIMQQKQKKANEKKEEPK
The data set is described as follows: fluorescence polarization. The settings on record: stated as sub-micromolar, FP/anisotropy: 20 mM NaPi pH 7.4, 100 mM KCl, 25 C (20-200 nM probe), NMR: same buffer, 4 C. Background: Polarisation of emitted light reports the rotation of a fluorescent probe.

Data set [2] deals with T1, SERF2. The data set is described as follows: fluorescence polarization; 100 mM KCl; FP/anisotropy: 20 mM NaPi pH 7.4, 100 mM KCl, 25 C (20-200 nM probe); NMR: same buffer, 4 C. The conditions noted are these: protein: recombinant, tags: His-SUMO removed, AF488-labeled in some assays.
In data set [3] the target is T1, SERF2. The data set is described as follows: EMSA; 10 uM RNA, 5-40 uM SERF2; FP/anisotropy: 20 mM NaPi pH 7.4, 100 mM KCl, 25 C (20-200 nM probe); NMR: same buffer, 4 C. The settings on record: protein: recombinant; tags: His-SUMO removed; AF488-labeled in some assays; G4. On the technique in general: In EMSA bound probe runs differently from free probe, usually more slowly.

Data set [4] addresses T1, SERF2. The data set is described as follows: fluorescence polarization; stated as sub-micromolar; FP/anisotropy: 20 mM NaPi pH 7.4, 100 mM KCl, 25 C (20-200 nM probe); NMR: same buffer, 4 C. The conditions noted are these: protein: recombinant; tags: His-SUMO removed; AF488-labeled in some assays; label: 6-FAM; G4.
In data set [5] the target is T2, SERF2 N-terminal domain (human, UniProt P84101 1-32).
T2 chain: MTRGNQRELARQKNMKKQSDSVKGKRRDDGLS
Briefly: fluorescence polarization; 100 mM KCl; FP/anisotropy: 20 mM NaPi pH 7.4, 100 mM KCl, 25 C (20-200 nM probe); NMR: same buffer, 4 C. The settings on record: protein: recombinant; label: 6-FAM (FP); unlabeled (NMR, EMSA); intramolecular G4.

Data set [6] deals with T3, SERF2 K23A (human, UniProt P84101 1-59, K23A).
T3 sequence: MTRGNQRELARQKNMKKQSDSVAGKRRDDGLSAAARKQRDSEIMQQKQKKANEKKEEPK
The data set is described as follows: EMSA; 5 uM each; minimally affected; FP/anisotropy: 20 mM NaPi pH 7.4, 100 mM KCl, 25 C (20-200 nM probe); NMR: same buffer, 4 C. The conditions noted are these: protein: recombinant; tags: His-SUMO removed; label: 6-FAM (FP); unlabeled (NMR, EMSA); intramolecular G4.

The target in data set [7] is T4, SERF2 K25A (human, UniProt P84101 1-59, K25A).
T4 sequence: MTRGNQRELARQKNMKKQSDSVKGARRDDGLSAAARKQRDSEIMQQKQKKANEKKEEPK
The data set is described as above. The conditions noted are these: protein: recombinant; tags: His-SUMO removed; label: 6-FAM (FP); unlabeled (NMR, EMSA); intramolecular G4.

Data set [8] addresses T1, SERF2. The data set is described as follows: NMR (HSQC, imino 1H, STD); FP/anisotropy: 20 mM NaPi pH 7.4, 100 mM KCl, 25 C (20-200 nM probe); NMR: same buffer, 4 C. The conditions noted are these: protein: recombinant; tags: His-SUMO removed; AF488-labeled in some assays; dimeric G4 (2 strands).
Data set [9] addresses T1, SERF2. Briefly: fluorescence polarization/anisotropy; stated as sub-micromolar; FP/anisotropy: 20 mM NaPi pH 7.4, 100 mM KCl, 25 C (20-200 nM probe); NMR: same buffer, 4 C. The settings on record: protein: recombinant; tags: His-SUMO removed; AF488-labeled in some assays; label: Cy3; G4.

Usually Kd stands for the equilibrium constant for the complex coming apart. Turning to polyG, in [1], the Kd was less than 1000 nM.
Molecule TERRA60 gave a Kd in data set [1] (AF488-SERF2, similar to TERRA23) of less than 1000 nM.

B1: (UG4U)6 (structured_RNA)
RNA: UGGGGUUGGGGUUGGGGUUGGGGUUGGGGUUGGGGU
Take B1: in data set [2] (label: 6-FAM, G4), the Kd turned out to be 730 ± 250 nM.

B2: (G4C2)4 RNA (structured_RNA)
RNA: GGGGCCGGGGCCGGGGCCGGGGCC
B2: in data set [2] (label: 6-FAM, G4), the Kd was 880 ± 100 nM.

B3: Stxbp5 rG4 (structured_RNA)
RNA: GGGAAGGGAAGGGGAGUGGG
Consider B3, for which the binding result in data set [3] was “binds”.

B4: (GGGA)4 (structured_RNA)
RNA: GGGAGGGAGGGAGGGA
Take B4: the Kd in data set [4] was less than 1000 nM.

B5: (GGA)7 (structured_RNA)
RNA: GGAGGAGGAGGAGGAGGAGGA
As to B5, the Kd in data set [4] was less than 1000 nM.

B6: TERRA23 (structured_RNA)
RNA: UAGGGUUAGGGUUAGGGUUAGGG
For B6, the binding signal in [5] is ~10 fold weaker than full length. Besides, the Kd in data set [2] (label: 6-FAM (FP), unlabeled (NMR, EMSA), intramolecular G4) is 300 ± 20 nM. For the same molecule, the binding result in data set [6] and in data set [7] was “binds” in each case.

B7: TERRA12 (structured_RNA)
RNA: UUAGGGUUAGGG
As to B7, the binding result in data set [8] is “binds”.

B8: (AGG)5 (structured_RNA)
RNA: AGGAGGAGGAGGAGG
B8: the Kd in data set [9] is less than 1000 nM.

B9: Mark2 rG4 (structured_RNA)
RNA: GAAGGGGAGGGGGCUGGGGGGGGGCAGGG
Turning to B9, the Kd in data set [2] (label: 6-FAM (FP), G4) was 4500 ± 500 nM.

The record behind these values is PMC12480911, “Visualization of liquid-liquid phase transitions using a tiny G-quadruplex binding protein”.
